Results as given in US20250064976A1 (BROAD INSTITUTE, published 2025).

Tests used:
[1] = biological target: the molecule itself; assay: TEM of protein purified from E. coli
[2] = biological target: the molecule itself; assay: capsid formation (homo-oligomer)
[3] = biological target: the molecule itself; assay: TEM of the HA-immunoprecipitated VLP fraction from HEK293FT cells
Description: Successful isolation was confirmed by Coommassie staining and protein capsids were imaged using TEM as described previously.

B1: PNMA2(340)-CCMV(30), engineered PNMA2 (other)
chain: MALALLEDWCRIMSVDEQKSLMVTGIPADFEEAEIQEVLQETLKSLGRYRLLGKIFRKQENANAVLLELLEDTDVSAIPSEVQGKGGVWKVIFKTPNQDTEFLERLNLFLEKEGQTVSGMFRALGQEGVSPATVPCISPELLAHLLGQAMAHAPQPLLPMRYRKLRVFSGSAVPAPEEESFEVWLEQATEIVKEWPVTEAEKKRWLAESLRGPALDLMHIVQADNPSISVEECLEAFKQVFGSLESRRTAQVRYLKTYQEEGEKVSAYVLRLETLLRRAVEKRAIPRRIADQVRLEQVMAGATLNQMLWCRLRELKDQGPPPSFLELMKVIREEEEEEASMSTVGTGKLTRAQRRAAARKNKRNTRVVQP
notes: Written as the monomer; The disordered C-terminal region of PNMA2 is replaced by the N-terminal 30 residues of CCMV; It was purified from E. coli and forms capsids like wild-type PNMA2; also called ePNMA2; PNMA2(1-340)-CCMV
binding result [1]: binds

B2: human paraneoplastic antigen Ma2 (PNMA2), recombinant, purified from E. coli (other)
chain: ALALLEDWCRIMSVDEQKSLMVTGIPADFEEAEIQEVLQETLKSLGRYRLLGKIFRKQENANAVLLELLEDTDVSAIPSEVQGKGGVWKVIFKTPNQDTEFLERLNLFLEKEGQTVSGMFRALGQEGVSPATVPCISPELLAHLLGQAMAHAPQPLLPMRYRKLRVFSGSAVPAPEEESFEVWLEQATEIVKEWPVTEAEKKRWLAESLRGPALDLMHIVQADNPSISVEECLEAFKQVFGSLESRRTAQVRYLKTYQEEGEKVSAYVLRLETLLRRAVEKRAIPRRIADQVRLEQVMAGATLNQMLWCRLRELKDQGPPPSFLELMKVIREEEEEEASFENESIEEPEERDGYGRWNHEGDD
notes: Written as the monomer; Only residues 158-340 were resolved by cryo-EM; also called PNMA2 monomer; wild-type PNMA2
binding result [2]: binds

B3: HA-tagged PNMA2 overexpressed in HEK293FT cells (other)
chain: B2 chain
notes: also called HA-PNMA2; PNMA2-HA; not shown: HA tag at the N-terminus
binding result [3]: binds
